In patent US20210395393A1:

Molecular target: TPA mutant tenecteplase (human) (UniProt P00750)
Test: binding ELISA, plate coated with tenecteplase

TPA mutant tenecteplase (human), sequence (P00750 36-562, change not shown): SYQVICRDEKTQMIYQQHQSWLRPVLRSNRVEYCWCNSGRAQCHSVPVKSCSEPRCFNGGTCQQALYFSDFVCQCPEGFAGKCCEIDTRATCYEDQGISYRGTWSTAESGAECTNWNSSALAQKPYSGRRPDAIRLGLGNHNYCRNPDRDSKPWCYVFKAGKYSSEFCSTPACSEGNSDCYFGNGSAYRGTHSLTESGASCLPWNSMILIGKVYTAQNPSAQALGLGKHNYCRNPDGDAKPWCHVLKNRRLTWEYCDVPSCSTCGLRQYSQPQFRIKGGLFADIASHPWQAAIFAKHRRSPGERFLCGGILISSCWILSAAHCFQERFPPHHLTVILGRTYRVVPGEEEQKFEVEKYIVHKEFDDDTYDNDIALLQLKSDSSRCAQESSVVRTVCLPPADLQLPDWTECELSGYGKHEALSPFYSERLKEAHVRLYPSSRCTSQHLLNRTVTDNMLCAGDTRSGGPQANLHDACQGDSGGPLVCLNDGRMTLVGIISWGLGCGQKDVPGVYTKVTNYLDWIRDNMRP

Binder	EC50
TPAi-1 RHP/RKA (antibody, V domains shown) VH: QVQLVQSGAEVKKPGASVKVSCKASGNTSYWINWVRQATGQGLEWMGRIDPGGGSTGYAQKFQGRVTMTRDTSISTAYMELSSLRSEDTAVYYCASYYYAMAYWGQGTLVTVSS VL: DVVMTQSPLSLPVTPGEPASISCRSSQSIVHSNGNTYLDWYLQKPGQSPQLLIYKVSNRASGVPDRFSGSGSGTDFTLKISRVEAEDVGVYYCFQGSHVPWTFGGGTKVEIK	0.633 nM
TPAi-1 RHP/RKA Fab (Fab, V domains shown) VH: QVQLVQSGAEVKKPGASVKVSCKASGNTSYWINWVRQATGQGLEWMGRIDPGGGSTGYAQKFQGRVTMTRDTSISTAYMELSSLRSEDTAVYYCASYYYAMAYWGQGTLVTVSS VL: DVVMTQSPLSLPVTPGEPASISCRSSQSIVHSNGNTYLDWYLQKPGQSPQLLIYKVSNRASGVPDRFSGSGSGTDFTLKISRVEAEDVGVYYCFQGSHVPWTFGGGTKVEIK	1.31 nM
